Measurements as given in patent publication US20160200813A1 (AbbVie / Abbott, published 2016).
“And” between values parts separate entries of the source, which are not always exact repeats. Identical values can stand only once. Blank lines part the entries; values can stand above or below the binder they belong to. *1 amine or outer side, *2 acyl side, *3 side chain or, on linkers, in order; H or OH if unused. Bridges are numbered along the chain shown (N, C = ends). Where no end group is shown, it is not given here. Lys(Aoa) = NOCC(=O)NCCCC[C@H](N[*:1])C(=O)[*:2]

Tests used:
[1] = molecular target: T1, Human LRP-8 (isoform 3) expressed on cells (human, UniProt Q14114 33-963); test: cell-based or functional assay
[2] = molecular target: T2, Cynomolgus monkey LRP-8 expressed on HEK293 cells (cynomolgus monkey); test: cell-based MSD, 1 to 5, cyno-LRP8-HEK293
T2 construct: whole, on cells; also called cyno LRP-8; cLRP-8

[3] = molecular target: T2, Cynomolgus monkey LRP-8 expressed on …; test: cell-based MSD, 1 to 25, cyno-LRP8-HEK293
[4] = molecular target: T1, Human LRP-8 (isoform 3) expressed on …; test: cell-based MSD, 1 to 5, human_LRP8_HEK293
[5] = molecular target: T2, Cynomolgus monkey LRP-8 expressed on …; test: cell-based MSD, 1 to 125, cyno-LRP8-HEK293
[6] = molecular target: T1, Human LRP-8 (isoform 3) expressed on …; test: cell-based MSD, 1 to 25, human_LRP8_HEK293
[7] = molecular target: T1, Human LRP-8 (isoform 3) expressed on …; test: cell-based MSD, 1 to 125, human_LRP8_HEK293
[8] = molecular target: T2, Cynomolgus monkey LRP-8 expressed on …; test: cell-based binding on CYNO LRP8-HEK293, supernatant 1:5
[9] = molecular target: T2, Cynomolgus monkey LRP-8 expressed on …; test: cell-based binding on CYNO LRP8-HEK293, supernatant 1:25
[10] = molecular target: T2, Cynomolgus monkey LRP-8 expressed on …; test: cell-based binding on CYNO LRP8-HEK293, supernatant 1:125
[11] = molecular target: T3, CR1.4 variant cyclic peptide (human, disulfide 1-13); test: BIACORE and direct ELISA
T3 peptide: H-CEKDQAQARAERCIPSVWR-{Lys(Aoa)-NH2}

[12] = molecular target: T2, Cynomolgus monkey LRP-8 expressed on …; test: FACS, cyno LRP8 cells
[13] = molecular target: T4, CR1 cyclic peptide of human LRP-8 (human, disulfide 1-13); test: ELISA using CR1 peptide
T4 construct: also called CR1 peptide; conjugated human LRP-8 CR1 peptide
T4 peptide: CEKDQFQSRNERCIPSVWR-{Lys(Aoa)-NH2}

[14] = molecular target: T1, Human LRP-8 (isoform 3) expressed on …; test: cell-based binding assay, hLRP8
[15] = molecular target: T2, Cynomolgus monkey LRP-8 expressed on …; test: cell-based binding assay, cynoLRP8
[16] = molecular target: T5, CR1.1 variant cyclic peptide (human, disulfide 1-13); test: ELISA, antibody titrated on coated CR1.1 peptide
T5 peptide: H-CEKDQAQSRNERCIPSVWR-{Lys(Aoa)-NH2}
Procedure: (§1) High binding MSD plates (MSD Cat# L15XB-3/L11XB-3) were coated with 1 μg/ml of CR1 or CR2 peptide overnight at 4° C. The next day, the plate was blocked with 3% MSD blocking buffer (MSD Cat# R93AA-01) for 1 hour at RT. The plates were washed with TTBS buffer (20 mM Tris; 0.5% Tween, 150 mM sodium chloride; pH 7.5) three times and a titer of anti-LRP-8 human Fc Ab was added. After incubating for 1 hour at RT, plate was washed and anti-human SULFO-TAG Ab was added to the plate and incubated for 1 hour. The plates were washed and immersed in MSD read buffer T with surfactant (MSD Cat# R92TC-1) before reading on an MSD SECTOR Imager 6000. Data were obtained and analyzed using a GraphPad Prism 6 software package (GraphPad Software, Inc., La Jolla, Calif.).

[17] = molecular target: T6, CR1.2 variant cyclic peptide (human, disulfide 1-13); test: ELISA, antibody titrated on coated CR1.2 peptide
T6 peptide: H-CEKDQFQARNERCIPSVWR-{Lys(Aoa)-NH2}
Procedure: as §1

[18] = molecular target: T7, CR1.3 variant cyclic peptide (human, disulfide 1-13); test: ELISA, antibody titrated on coated CR1.3 peptide
T7 peptide: H-CEKDQFQSRAERCIPSVWR-{Lys(Aoa)-NH2}
Procedure: as §1

[19] = molecular target: T1, Human LRP-8 (isoform 3) expressed on …; test: cell-based MSD-ECL binding on cells overexpressing human LRP-8 variant 3 (hLRP8 assay)
Procedure: (§2) A cell-based ECL-MSD binding assay was used to determine antibody affinity. HEK293 cells overexpressing human, monkey or mouse LRP-8 were added onto MSD 96-well plate (MSD Cat# L15XB-3/L11XB-3) and incubated at 37° C. for one hour. Cells were blocked using 15% FBS (Hyclone, Thermo Scientific Cat# SH300700.03) at RT for 30 minutes with mild agitation. Plates were washed with DPBS three times and Abs or DVD-Ig binding proteins were added to the well. After incubation at RT for one hour, plates were washed with DPBS and goat anti-human or anti-mouse Sulfo TAG (MSD Cat#R32AJ-1) was added. Plates were incubated at RT for one hour, washed with DPBS and immersed in MSD read buffer (MSD Cat#R92TD-2) before reading on a MSD SECTOR Imager 6000. EC50 values were obtained using Xlfit4 software system.

[20] = molecular target: T2, Cynomolgus monkey LRP-8 expressed on …; test: cell-based MSD-ECL binding on cells overexpressing cyno LRP-8 variant 1 (cynoLRP8 assay)
Procedure: as §2

[21] = molecular target: T4, CR1 cyclic peptide of human LRP-8; test: antibody titrated on plates coated with 1 ug/ml CR1 peptide (Example 1.12.2); lower table, column ng/ml
Procedure: as §1

[22] = molecular target: T8, CR2 cyclic peptide of human LRP-8 (human, disulfide 1-13); test: antibody titrated on plates coated with 1 ug/ml CR2 peptide (Example 1.12.2); lower table, column ng/ml
T8 construct: also called CR2 peptide; conjugated human LRP-8 CR2 peptide
T8 peptide: CADSDFTSDNGHCIHERWK-{Lys(Aoa)-NH2}
Procedure: as §1

T1 sequence (Q14114 other isoform, or with tags, fused parts or gaps limits assumed): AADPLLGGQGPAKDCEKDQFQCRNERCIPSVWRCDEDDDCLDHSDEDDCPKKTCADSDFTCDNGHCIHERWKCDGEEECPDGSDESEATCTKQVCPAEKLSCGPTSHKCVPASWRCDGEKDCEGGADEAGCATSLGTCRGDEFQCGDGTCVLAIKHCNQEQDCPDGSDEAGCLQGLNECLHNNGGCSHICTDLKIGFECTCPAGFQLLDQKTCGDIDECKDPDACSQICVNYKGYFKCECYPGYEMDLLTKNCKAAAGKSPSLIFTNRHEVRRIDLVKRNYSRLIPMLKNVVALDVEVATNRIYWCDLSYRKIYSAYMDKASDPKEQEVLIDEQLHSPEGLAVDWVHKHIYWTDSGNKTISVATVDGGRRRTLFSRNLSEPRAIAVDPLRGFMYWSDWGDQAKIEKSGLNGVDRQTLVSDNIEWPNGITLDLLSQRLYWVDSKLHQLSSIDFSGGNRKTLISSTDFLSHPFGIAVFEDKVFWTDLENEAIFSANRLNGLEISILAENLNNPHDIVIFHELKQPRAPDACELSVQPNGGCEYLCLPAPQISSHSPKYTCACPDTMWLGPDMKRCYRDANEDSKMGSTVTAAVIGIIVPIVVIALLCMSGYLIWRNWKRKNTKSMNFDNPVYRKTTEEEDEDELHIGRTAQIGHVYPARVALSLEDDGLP

Endocytosis, fold over-IgG [1]: 5.18 fold | Transcytosis, fold over-IgG [1]: 2.17 fold | fold over IgG control [2]: 2 fold | fold over IgG control [3]: 1.9 fold | fold over IgG control [4]: 5 fold | fold over IgG control [5]: 1.8 fold | fold over IgG control [6]: 5.2 fold | fold over IgG control [7]: 5 fold | fold over isotype control [8]: 3.23 fold | fold over isotype control [9]: 1.86 fold | fold over isotype control [10]: 1.5 fold
B1: BGK-7F7 (GENOVAC candidate clone of Table 17) (antibody, V domains shown)
VH: QVTLKESGPGILQPSQTLSLTCTFSGFSLSTYGLGVGWIRQPSGKGLEWLANIWWDDAKYYNPSLKNRLTISKDTSNNQAFLKIPNVDTADTARYYCARTTKPYYFDYWGQGVMVTVSS
VL: HFVLAQPNSVSTNLGSTVKLSCKRSTANIGSNYVNWYQQHEGRSPTTLIYRDDRRPDGVPDRFSGSIDRSSNSALLTINNVQTEDEADYFCQSYSSGINIFGGGTKLTVL
notes: here the candidate from rat immunization before chimerization, tested at dilutions

binding result [11]: no binding | FACS (ratio +/-) [12]: 141 ratio | OD450 [13]: 4 OD450 | EC50 [14]: 0.22 nM | EC50 [15]: 0.21 nM | binding result [16]: no binding (tested: 10000 ng/ml) | binding result [17]: binds | binding result [18]: binds | EC50 [19]: 0.0484 µg/mL and 0.32 nM | EC50 [20]: 0.0691 µg/mL and 0.46 nM | EC50 [21]: 0.225 µg/mL | EC50 [22]: 0.312 µg/mL
B2: chimeric anti-LRP-8 ML199.11H1.5B2 antibody [mu/hu IgG1/k] LALA (antibody, V domains shown)
VH: EVQLVESGGDLVKPGGSLKLSCAASRFTFSNYGMSWVRQTPDKRLEWVATISSGGRYTYYPDSVKGRFTISRDNAKNTLYLQMSSLRSEDTAMYYCARDYLYAMDYWGQGTSVTVSS
VL: DVVMTQTPLSLPVSLGDQASISCRSSQSLVYSNGNTYLHWYLQKPGQSPKVLMYKVSNRFSGVSDRFSGSGSGTDFTLKISRVEAEDLGVYFCSQSTHVPLTFGAGTKLELK
notes: Mouse variable domains on human IgG1/kappa with L234A, L235A (LALA); also called ML199.11H1.5B2 hFc; ML199.11H1.5B2 mu/hu IgG1 m/k
